The data set is described as follows: label from the status in PepcDB records.
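Further: failed if final PepcDB status was selected cloned or expressed and not failed if soluble or beyond.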

On to “MQVRIERAERIESELEEHVGDQTFVEESRFLEEDEQREGEILDQIIFVDGKRRSFVRITTDEGITGIFAELCVGAVIWDREGGTKTLFSPDKPPVKERVLGFSQSFQEEGYEEVGGILFKVVKEGKDAMQSIDLYMRSLEIEEVRKHMDKNILIVKDGPAARELPFEENVGPIGLVKNIGVTELSKEDFKKLRFLKKGKRSKMFVSSRETPLKKVGAYVKLIDGEGIRGLVRLETYVKDDNQIPYIRKVFDDLAKTLPHLTADLPIPRLPENILPIQFLEENLSYYLTDKNYMNTRLFAYIGR”, for which the protein production entry is listed as “not failed”.
As for “MQVTADAVPKLNRAAVAAGSADIDAVSGATYTSAGYVKSLQSALDKAAAAAGPAAQESSGADSGSGGGGRSEGDAGQGTQVLTGDAAQTQYGPVQVRVTVSGGRITDVEALQAPKGGRSDQVTADAVPRLNRAAVAAGTADIDAVSGATYTSAGYTQSLQSALDRAGGLEHHHHHH”, the entry is “failed”; as for “MQWANLALFLTEAIVYFSVMTAFLHYRHILGIGVFLTALGVMHFLETYLAAVFYVQLPFGVASPGSSILFAGKLMMILMLYMREDAAVVRQPIYGLFLGNILTVIMAQIIRFHQTVAIVPGQSVSTGFLDEMGILMVWGTSLLYIDAIAIILFYEKLGRYLQRHIVLRFAICGVVILSFDQAGFYGALRLLFNAPVDVFYDGWKAKMAAVGIYSLLFATYLWLTAAKGRFLTRRSVADVFNDLTFRERYEELLSRSGRDMLTGVSDRARMELDAPSLVVECLEKRRPVSVLIVDIDHFKTVNDTFGHLQGDEILREFAAVLKRAVQPLGHLYRFGGEEFVALLPAMTHETALAFSASLRVAVLAELQRPDGSPLTVSIGVATAFEDGQLFRALLSEADAWLYAAKNNGRDQVHGRHGMWVG”, “failed”; as for “MQWIYLCFAILFEVAGTTAMKLSDGLTKLVPSILIFVFYVVSFAFLSFALKGMEMSVAYAVWSGMGIVTITTIGFIYFGESINIIKILAILFILVGVVILNFNSTAHEAKKKEMVEERIH”, “failed”.
For the sequence “MQYIFSIISGIIVGFSLGLIGGGGSILAIPLLIYFVGIKNPHLVIGTTALAVGINALINVYSHLRKKNVSLRTGAIFTVFGILGVLLGTTLGLITPGGKLLFLFSFLMIVIGAYMFITKCKTCKNYDAIPKKNNNDDPPDPPKKGLWQKIKLEVFGVLAGFASGYFGIGGGFLIVPALLYSADITMNLAVGTSLMSVGTFGLVTALRYGIAGKVLVTIALLYVLGGIFGGYAGAKLSSSMKRSTLRRFFSLIIIVVGIYMAIESFSAVF”, the protein production result is recorded as “failed”.
Regarding “MQYIKQIMLLVILTISWKCQAEEVKEIWLDELGESSYYIQDWGLPRINKAVTMTPLTVKGIVYERGIGTHAISRMLFDIGKKAKTLSGLAGADDNTPFACNLQFKILGDRKELWRSGIMRKGDPAKPFNIDLSGIDKVLLLVEECGDGMMYDRADWLNVKFTTLGDVQPIPVWPKPIAKEKYILTPQSPDAPQINNPLTYGARPGNPFLMPIMVSGKRPMTYKAKGLPKGLKLNRKTGLITGSTNTNGNFKVRLQATNEKGTDEKEITLKIGSEIMLTPPMGWNSWNCWRFAADDQKVRDAARIMHEKLQAYGWTYVNIDDGWEADERTPEGELPANEKFPDFKTLTDYIHSLGLKFGIYSSPGWTTCGRHIGSCQHELTDAKTWEKWGVDYLKYDYCGYAAIEKNSEEKTIQEPFIVMRNALDQIKRDIVYCVGYGAPNVWNWGAEAGGNLWRTTRDINDQWNIVMAIGCFQDVCAYVSAPGKYNDPDMLVVGKLGPGWGAKSHDSDLTADEQYAHISLWSILSAPLLLGCDMTAIDDFTLGLLTNPEVIAVNQDPLVAPATKLTVPNGQIWYKKLYDGSYALGFFQMDPYFILWDQDKAVNIQQQKYNFNFALNQLGIQGKVKIRDLWRQKNLGIFSGSYETSIPYHGVSLIKITPIK”, the protein production entry was “failed”.
The result for “MQYQGRSKRSKTGARLRPRSKKSKSELGREPTETTVGEPRFRTVDVRGDAEKVRVLSTNVVNVATDSGAERATIEDVSANDANPNYARRNIITKGAIIETDAGTARVTSRPGQDGQVNATRVDE” reads “failed”; that for “MRAAFRTLGCKVNQVETEALLGFLKALEPEVVPLEAGGADLVVINSCAVTTTAEADTRKEVRRARRYNPHAFIVVTGCYAELAPEVLKELGADAVVPNARKAELPRVILERFGLPSDPITTPPNEFWGAGERGLLNSRVRAFLKVQDGCQAGCAYCIIPRLRGKERHRDHREALAEAEALLRMGIKEIVLTGVRLGSYKGHPRGLAGLVEDLYHLGAKVRLSSIEPEDTGEDLLKVIGRYAPEVRPHLHLSLQTGSDRLLKLMGRRYDKAYYRELVQRAYDLIPGFALTTDVIAGLPTETEEEHRETLAFLEELRPTRVHAFTYTPRPKTRAASMPQVPPEVRKRRTKELIALAQRLAEERIRPRLGERVEVLVERVQGGEALGHTPDYYEARLEGEARPGETVWARVHGVEGYVLLGRVEGVKEGARGPLELPVRLEHHHHHH”, “failed”.
As for “MRAASTSKPVGAHEETGHLGGAHSTYVSSAQVTNAEHENELQVVDLPRAPPSLSKAVTYFYITGFGRFALMEDNPTERVVLRLREILQDPGRVQMLHERLVRIVDLRILEVSAAAAHETLAEMKTQCLQMRQKPNISSDGRNRTVCFLHLGVDASADGFLVERSAVNEALFRFPDERGWQPTTPIPIVRGAQLGARYELDGEALASLCERTESLLNEWGRTNWTVRVNDDAGRFLCNYLFYLSAFEGLAENGHHLWQTFFLHCPMETVAPLDVQVDVVLAFMVAVAQSNAQQGPLEGILAR”, the entry is “not failed”.
As for “MRAGFFVGILGLAGAILQGANVTEAVGSELVLFPSGGGLSAIAAIVALLTAAVLVAVGIFTGYPIATAFTVTGAVVGVGLAMGGQPATAKYIEIVSLWVLTPFVGGGIAFGTAWSLRHEATTEERLVPLLGGLVGVILANIEFVLLAPGSEQASVARAVARAAGTPIFPSMVVVTLLIGVLAGGLLYLDIRADAAAGQRHFLLVMGGLVAFSAGGSQVGLALGPLVPLLGEGPTAAIPITGVLLFGGLGLLVGSWTGAPRMIKALAQDYSSLGPRRSIGALIPSFIIAQAAVFFGIPVSFNEIIVSAIVGSGAAAGGGEVSREKMGKTVLAWIGSLALAFALSYGLFWIIDAAL”, the entry is “failed”; as for “MRAGIVGSGIMGRLLAFVLHNAGWQVSLFDRSNESMNCSTAAAGLLTPFSELDKSILLISTLGQESIKNCWPRIIEDLPESVYFQQSGSLVLCHPGDQAEWIHFSRRILSQLNPSNSVFQKLSHENLIALEPELTKFETAYYFPNEAHIDCQTLMLSLKNYLDSVCIPHITNTPVLSLKPGEINTKEQRYHFDVVFDCRGLGAQNVFSDLRGIRGELIWLHAPGVQLHRPIRLLHPRYSLYLVPRPGNFYLIGASEIEAEDFSPVSVRTALELLTAVYYLHRNFDEARIIKTVTHCRPTLVNHLPRIKFADGLIAVNGLYRHGYLIAPALAEEILRGVTSNFRHLNYPELWENYCDLEHHHHHH”, “failed”.
For “MRAHTLSRQLREGNLFAEQCPSREVLKHVTSRWGVLILVALRDGTHRFSDLRRKMGGVSEKMLAQSLQALEQDGFLNRVSYPVVPPHVEYSLTPLGEQVSDKVAALADWIELNLPQVLAQRERLSDGG”, the protein production entry is “not failed”.
As for “MRAILILLDGLGDRASEILNNKTPLQFAKTPNLDRLAENGMCGLMTTYKEGIPLGTEVAHFLLWGYSLEEFPGRGVIEALGEDIEIEKNAIYLRASLGFVKKDEKGFLVIDRRTKDISREEIEKLVDSLPTCVDGYKFELFYSFDVHFILKIKERNGWISDKISDSDPFYKNRYVMKVKAIRELCKSEVEYSKAKDTARALNKYLLNVYKILQNHKINRKRRKLEKMPANFLLTKWASRYKRVESFKEKWGMNAVILAESSLFKGLAKFLGMDFIKIESFEEGIDLIPELDYDFIHLHTKETDEAAHTKNPLNKVKVIEKIDKLIGNLKLREDDLLIITADHSTPSVGNLIHSGESVPILFYGKNVRVDNVKEFNEISCSNGHLRIRGEELMHLILNYTDRALLYGLRSGDRLRYYIPKDDEIDLLEG”, the entry is “failed”.
In the case of “MRAKITYAVTAAVLVVYFVLVGSRGVLLIQNGTLVTVTFGVAVLILPVIGVWFLWKNTQFVRKANALAAELDAEGGLPVDELRRTPGGRIDRDSADEVFARRKAETEDAPGDWRSWFRLAVAYHDARDTPRARKAMQRAIALHEGRPVEA”, the protein production entry is listed as “failed”.
With “MRAPLPELPAGTRFGAWAIDRLIGAGGMGQVYLGHRADGAYEREVAIKLVAADALDAQGRALFEFECRLLAQMVHPAIAQIHDVGTDAHGQPYLVMEYLRGEPITWWCDEHRLSLHARVLLMLRVGEAVQHAHQKGVIHRDLKPSNVLVSEIDGRPMPGVIDFGIAVDATNPGMTYAHDRGTPGYMSPEQARGAQDVDARSDIYALGAMFYELSCGLAPVAGRDGVPQPPSQRVAAVPADARARICAARATTYQKLHEQLRDGLDAIVLRALEPQPGARYASVSALLDDLHRWLDGYPPRALQASRWLRLRKFTQRHRSGVAAAGLAAIAVVAGLGATLWSLQQAARDAQRAQVTGDFMSSVLSSVDPGVARDLDKTLMLRVMQQASQRAARELADQPDARTQVELTLGRTLIALANFPQAVEHLRIAQTLAQQTAGAGSLPALKAASMLGQALTGDGKPGDAERVLRQGIAQAARGDAQQQAMGNELRAWLAWALREQGRMRDALAESRHAYVAALANASSSADQRIDAGNSYAAMLADNGQLVPAIALQRSLLRERMAMRGPEHPLVVSMRNSLAVFLLMQRDFAGAEAELVPLLRVTRTLYGESAADTLMIEGNLAGALRQQGKVAEAGPYYRRALERARAAFGNDAPVTIAYRSNHAFWLLDDGQVDASLAEQRAALTASERVLGRAHPQTAEILRGMSEAERRLGQTVAARDHARQALQILTGIFGDADAPLRAARQTLASATPPADSREAEATTAVAQR”, the protein production result is recorded as “failed”.
The result for “MRARLYAAFRQVGEDLFAQGLISATAGNFSVRTKGGFLITKSGVQKARLTPEDLLEVPLEGPIPEGASVESVVHREVYRRTGARALVHAHPRVAVALSFHLSRLRPLDLEGQHYLKEVPVLAPKTVSATEEAALSVAEALREHRACLLRGHGAFAVGLKEAPEEALLEAYGLMTTLEESAQILLYHRLWQGAGPALGGGE” reads “not failed”; that for “MRARPYPTSTYFVSTADGRLPAMSQPIAAPFRQQLLDLVARIPPGRVMTYGQLALLAGQPGAARQAGAVMHSLKDSDLPWQRVINAQGRVSTYKVGLGEVQEGLLRAEGIEFDDAGRCDLSRYQWWPDENAANIAQRLL”, “failed”; that for “MRASHETTTSMGHDHNHAPSEIRHETPLWWALGLTATFLLAEIIGAFVTNSLALLSDAAHMATDTVGLMIALVAVRLSRRPADARRTYGYVRLEALGALANGALLFAVGGYILWEAAQRVRAPQDIAYGGMLLIAGFGLVINLIAMKLLHAGSGESLNVKGAYLEVWSDMLGSMAVIIGALLIHWTSWQWIDPVLAVLIGLWVLPRTWVLLREAINVLLEGVPKGIDLAQVQQALTSHPGVEDVHDLHVWALASSTPALTAHIVVNEATDRDRLRDALATLLHDRFDIVHVTLQVESGDCGTEPCGTPKPAADAGHDAHHGHSHAHGHSHH”, “failed”.
As for “MRAVIPYKKAGAKSRLSPVLSLQEREEFVELMLNQVISSLKGAGIEQVDILSPSVYGLEEMTEARVLLDEKDLNEALNRYLKEAEEPVLIVMADLPLLSPEHIKEISSTEKDVCIVPGKGGGTNALFIKNPSKYRVKYYGSSFLTHCSIATDSGQDFEIYDSFMAGTDIDEPEDLVELLIHGKGAAKDYIESKFRLEVKKGRVGLVPL”, the entry is “not failed”.
